Here are results for 1 molecule from patent publication US20050136061A1 (published 2005).

For the experiment, the target named is HIV-1 IIIB transmembrane glycoprotein gp41 (HIV-1 IIIB). The experiment is described as follows: cell-based or functional assay.

No end group written: not given here.

With WQEWEQKITALLEQAQIQQEKNEYELQKLDKWASLWEWF (not fully specified) [T-1249 peptide], the “IC50, inhibition of HIV-1 IIIB infection of MT4-Luc cells (HIV LTR-luciferase reporter assay)” value is around 3.3 nM.
